Reference: the supplement of paper PMC10065799, “High-throughput profiling of sequence recognition by tyrosine kinases and SH2 domains using bacterial peptide display” (eLife, 2023)

Target: Fes (UniProt P07332)
Test: phosphorylation enrichment, bacterial display (enrichment ratio); higher = better substrate or ligand; peptides without Tyr show the background
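Note: 11-residue human phosphosite peptides and single-mutation variants displayed on the E. coli surface, counted by deep sequencing, each peptide's frequency after selection divided by its frequency in the unselected input library; frequency after pTyr selection over input frequency; kinase dosed for 20-30% of maximal phosphorylation in three min.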

Sequence of Fes (P07332 whole entry, looked up): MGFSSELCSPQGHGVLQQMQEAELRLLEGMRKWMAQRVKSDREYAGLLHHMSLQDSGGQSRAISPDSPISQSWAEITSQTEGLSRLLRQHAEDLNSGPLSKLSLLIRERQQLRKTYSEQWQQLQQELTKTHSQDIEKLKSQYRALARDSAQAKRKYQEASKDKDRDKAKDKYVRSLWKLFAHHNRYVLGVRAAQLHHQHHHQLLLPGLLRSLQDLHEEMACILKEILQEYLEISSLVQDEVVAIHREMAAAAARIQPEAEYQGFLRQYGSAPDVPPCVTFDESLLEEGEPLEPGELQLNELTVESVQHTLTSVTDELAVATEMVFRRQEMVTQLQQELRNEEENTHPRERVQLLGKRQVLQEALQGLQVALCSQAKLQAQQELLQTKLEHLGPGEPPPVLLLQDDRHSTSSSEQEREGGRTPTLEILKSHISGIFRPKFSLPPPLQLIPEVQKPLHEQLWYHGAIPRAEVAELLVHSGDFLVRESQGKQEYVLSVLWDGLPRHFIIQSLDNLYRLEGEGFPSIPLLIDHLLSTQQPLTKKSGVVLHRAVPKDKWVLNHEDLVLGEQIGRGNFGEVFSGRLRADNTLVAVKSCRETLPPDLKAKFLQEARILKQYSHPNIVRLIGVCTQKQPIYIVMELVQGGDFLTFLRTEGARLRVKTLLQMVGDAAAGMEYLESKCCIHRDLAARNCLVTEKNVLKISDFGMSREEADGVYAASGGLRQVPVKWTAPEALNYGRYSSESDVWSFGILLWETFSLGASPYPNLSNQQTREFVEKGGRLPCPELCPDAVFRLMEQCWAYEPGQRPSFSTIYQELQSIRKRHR

Going from RLPSGYGLAFR [DLK1_Y262_YF] to KWLEQYTQAIE [LSP1_Y234_Q229K], the phosphorylation enrichment rises from 0.885 to 0.977.

Compared with HHFAAYFQQGD [GPI_Y351_R347H], EFGRRYGFSCQ [CCDC93_Y209_R213C_YF] is lower in phosphorylation enrichment: 1.13 for the first, 0.989 for the second.

Compared with YPQARYHWLVL [APTX_Y214_K211Q], CERFSYFGMKA [SLC15A2_Y60_YF] is higher in phosphorylation enrichment: 1.14 for the first, 1.26 for the second.

Going from WFKKFYDANFD [MAPRE2_Y158_YF] to PLQKIYNFNVL [SLC4A1_Y553_T552I_YF], the phosphorylation enrichment rises from 1.28 to 1.44.

First: IYLADYRIMEG [ALOX12B_Y318]
Second: PESIMYWKFTT [NTRK3_Y744_R745W]
The phosphorylation enrichment of the first is lower: 1.1 for the first, 2.81 for the second.

First: QTLEAYIRWNK [SPAST_Y604]
Second: SGGMDYGMVGG [TNRC6B_Y1382]
The phosphorylation enrichment of the first is higher: 1.44 for the first, 0.574 for the second.

First: RKKEEYKMALF [F8_Y1990_YF]
Second: GPIEVYLCPEE [E2F3_Y349]
The phosphorylation enrichment of the first is lower: 0.708 for the first, 1.08 for the second.

Going from TFYQMYDKGLV [IARS2_Y231] to KAIMTYVFSFF [ACTN4_Y260_S262F_YF], the phosphorylation enrichment rises from 0.916 to 0.945.

Going from ILGRTYFVNHE [NEDD4_Y627_YF] to TDEFEYDELIV [TGM1_Y136_YF], the phosphorylation enrichment rises from 0.854 to 2.77.

Going from GYRVYYTPDSR [PTPRF_Y451] to EEQKKYFNAVK [SCN5A_Y1494_M1498V_YF], the phosphorylation enrichment rises from 0.768 to 1.05.

First: PSFSEYASVQV [SIRPA_Y496]
Second: WCKPPYFSCAV [MMS22L_Y28]
The phosphorylation enrichment of the first is lower: 0.801 for the first, 0.908 for the second.

Going from ALAAPYVLYPG [CEFIP_Y1332] to GENTVYAQVFN [LY9_Y603_M602V], the phosphorylation enrichment rises from 0.799 to 0.918.

Compared with GFRPVYSEDEQ [CHST6_Y362_YF], IHETTYNSIKK [ACTA1_Y281_M285K] is lower in phosphorylation enrichment: 1.49 for the first, 0.689 for the second.

Compared with GDNNIYVTKII [DLG1_Y349_S347N], HCHEGYVLHGA [SVEP1_Y2921_I2922V] is higher in phosphorylation enrichment: 0.991 for the first, 1.3 for the second.

Going from VKANTYEKYWP [GATM_Y100] to PLQKTYNHNVL [SLC4A1_Y553_Y555H], the phosphorylation enrichment rises from 0.71 to 0.946.

Going from WRVISYHVVVW [ATP13A2_Y50_G49S] to VNFGAYINDFK [GLB1_Y488_YF], the phosphorylation enrichment falls from 1.47 to 0.997.

Sequence EVKRLYGSVCD [TC2N_Y154] has a phosphorylation enrichment of 1.16.

Target: Hck (UniProt P08631)
Test: as above

Sequence of Hck (P08631 whole entry, looked up): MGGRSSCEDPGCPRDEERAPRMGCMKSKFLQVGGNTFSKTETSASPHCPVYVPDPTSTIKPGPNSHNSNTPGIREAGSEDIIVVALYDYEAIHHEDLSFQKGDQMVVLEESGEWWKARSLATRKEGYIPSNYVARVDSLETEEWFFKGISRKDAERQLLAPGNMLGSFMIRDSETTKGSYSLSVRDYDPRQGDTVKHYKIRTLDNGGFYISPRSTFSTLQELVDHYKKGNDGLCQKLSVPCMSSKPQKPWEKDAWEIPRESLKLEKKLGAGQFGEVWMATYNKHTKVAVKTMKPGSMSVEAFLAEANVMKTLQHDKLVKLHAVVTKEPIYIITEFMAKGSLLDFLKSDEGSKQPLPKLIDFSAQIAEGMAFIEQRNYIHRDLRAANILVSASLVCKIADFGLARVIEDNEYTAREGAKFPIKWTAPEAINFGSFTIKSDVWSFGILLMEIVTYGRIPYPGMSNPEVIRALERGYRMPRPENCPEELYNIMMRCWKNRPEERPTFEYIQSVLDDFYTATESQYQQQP

Compared with RLPSGYGLAFR [DLK1_Y262_YF], KWLEQYTQAIE [LSP1_Y234_Q229K] is lower in phosphorylation enrichment: 0.509 for the first, 0.441 for the second.

Compared with HHFAAYFQQGD [GPI_Y351_R347H], EFGRRYGFSCQ [CCDC93_Y209_R213C_YF] is lower in phosphorylation enrichment: 0.549 for the first, 0.418 for the second.

First: YPQARYHWLVL [APTX_Y214_K211Q]
Second: CERFSYFGMKA [SLC15A2_Y60_YF]
The phosphorylation enrichment of the first is lower: 0.531 for the first, 0.557 for the second.

Going from WFKKFYDANFD [MAPRE2_Y158_YF] to PLQKIYNFNVL [SLC4A1_Y553_T552I_YF], the phosphorylation enrichment rises from 0.421 to 1.12.

First: IYLADYRIMEG [ALOX12B_Y318]
Second: PESIMYWKFTT [NTRK3_Y744_R745W]
The phosphorylation enrichment of the first is lower: 0.812 for the first, 1.96 for the second.

Compared with QTLEAYIRWNK [SPAST_Y604], SGGMDYGMVGG [TNRC6B_Y1382] is higher in phosphorylation enrichment: 0.472 for the first, 0.702 for the second.

First: RKKEEYKMALF [F8_Y1990_YF]
Second: GPIEVYLCPEE [E2F3_Y349]
The phosphorylation enrichment of the first is lower: 0.465 for the first, 0.549 for the second.

First: TFYQMYDKGLV [IARS2_Y231]
Second: KAIMTYVFSFF [ACTN4_Y260_S262F_YF]
The phosphorylation enrichment of the first is higher: 3.46 for the first, 0.502 for the second.

Compared with ILGRTYFVNHE [NEDD4_Y627_YF], TDEFEYDELIV [TGM1_Y136_YF] is higher in phosphorylation enrichment: 0.379 for the first, 1.56 for the second.

Compared with GYRVYYTPDSR [PTPRF_Y451], EEQKKYFNAVK [SCN5A_Y1494_M1498V_YF] is lower in phosphorylation enrichment: 2.69 for the first, 0.483 for the second.

Going from PSFSEYASVQV [SIRPA_Y496] to WCKPPYFSCAV [MMS22L_Y28], the phosphorylation enrichment falls from 1.93 to 0.432.

Compared with ALAAPYVLYPG [CEFIP_Y1332], GENTVYAQVFN [LY9_Y603_M602V] is higher in phosphorylation enrichment: 0.794 for the first, 6.46 for the second.

First: GFRPVYSEDEQ [CHST6_Y362_YF]
Second: IHETTYNSIKK [ACTA1_Y281_M285K]
The phosphorylation enrichment of the first is lower: 0.615 for the first, 0.69 for the second.

Going from GDNNIYVTKII [DLG1_Y349_S347N] to HCHEGYVLHGA [SVEP1_Y2921_I2922V], the phosphorylation enrichment falls from 1.21 to 0.786.

First: VKANTYEKYWP [GATM_Y100]
Second: PLQKTYNHNVL [SLC4A1_Y553_Y555H]
The phosphorylation enrichment of the first is higher: 1.01 for the first, 0.291 for the second.

Going from WRVISYHVVVW [ATP13A2_Y50_G49S] to VNFGAYINDFK [GLB1_Y488_YF], the phosphorylation enrichment falls from 0.544 to 0.441.

In the case of EVKRLYGSVCD [TC2N_Y154], the phosphorylation enrichment is reported as 0.61.

Test system: c-Abl (mouse)
Test: as above

Compared with RLPSGYGLAFR [DLK1_Y262_YF], KWLEQYTQAIE [LSP1_Y234_Q229K] is lower in phosphorylation enrichment: 0.889 for the first, 0.702 for the second.

Compared with HHFAAYFQQGD [GPI_Y351_R347H], EFGRRYGFSCQ [CCDC93_Y209_R213C_YF] is lower in phosphorylation enrichment: 0.945 for the first, 0.733 for the second.

Compared with YPQARYHWLVL [APTX_Y214_K211Q], CERFSYFGMKA [SLC15A2_Y60_YF] is higher in phosphorylation enrichment: 0.744 for the first, 0.94 for the second.

First: WFKKFYDANFD [MAPRE2_Y158_YF]
Second: PLQKIYNFNVL [SLC4A1_Y553_T552I_YF]
The phosphorylation enrichment of the first is lower: 0.537 for the first, 1.06 for the second.

Compared with IYLADYRIMEG [ALOX12B_Y318], PESIMYWKFTT [NTRK3_Y744_R745W] is higher in phosphorylation enrichment: 0.978 for the first, 2.36 for the second.

First: QTLEAYIRWNK [SPAST_Y604]
Second: SGGMDYGMVGG [TNRC6B_Y1382]
The phosphorylation enrichment of the first is higher: 0.913 for the first, 0.52 for the second.

Going from RKKEEYKMALF [F8_Y1990_YF] to GPIEVYLCPEE [E2F3_Y349], the phosphorylation enrichment rises from 0.72 to 0.724.

First: TFYQMYDKGLV [IARS2_Y231]
Second: KAIMTYVFSFF [ACTN4_Y260_S262F_YF]
The phosphorylation enrichment of the first is higher: 0.91 for the first, 0.526 for the second.

First: ILGRTYFVNHE [NEDD4_Y627_YF]
Second: TDEFEYDELIV [TGM1_Y136_YF]
The phosphorylation enrichment of the first is lower: 0.735 for the first, 0.91 for the second.

Compared with GYRVYYTPDSR [PTPRF_Y451], EEQKKYFNAVK [SCN5A_Y1494_M1498V_YF] is lower in phosphorylation enrichment: 1.89 for the first, 0.742 for the second.

Compared with PSFSEYASVQV [SIRPA_Y496], WCKPPYFSCAV [MMS22L_Y28] is lower in phosphorylation enrichment: 4.02 for the first, 0.656 for the second.

Compared with ALAAPYVLYPG [CEFIP_Y1332], GENTVYAQVFN [LY9_Y603_M602V] is higher in phosphorylation enrichment: 0.569 for the first, 2.92 for the second.

First: GFRPVYSEDEQ [CHST6_Y362_YF]
Second: IHETTYNSIKK [ACTA1_Y281_M285K]
The phosphorylation enrichment of the first is higher: 1.27 for the first, 0.455 for the second.

Going from GDNNIYVTKII [DLG1_Y349_S347N] to HCHEGYVLHGA [SVEP1_Y2921_I2922V], the phosphorylation enrichment rises from 0.701 to 0.78.

First: VKANTYEKYWP [GATM_Y100]
Second: PLQKTYNHNVL [SLC4A1_Y553_Y555H]
The phosphorylation enrichment of the first is lower: 0.492 for the first, 0.833 for the second.

First: WRVISYHVVVW [ATP13A2_Y50_G49S]
Second: VNFGAYINDFK [GLB1_Y488_YF]
The phosphorylation enrichment of the first is higher: 1.03 for the first, 0.558 for the second.

EVKRLYGSVCD [TC2N_Y154] showed a phosphorylation enrichment of 0.849.

Target: Jak2 (UniProt O60674)
Test: as above

Sequence of Jak2 (O60674 whole entry, looked up): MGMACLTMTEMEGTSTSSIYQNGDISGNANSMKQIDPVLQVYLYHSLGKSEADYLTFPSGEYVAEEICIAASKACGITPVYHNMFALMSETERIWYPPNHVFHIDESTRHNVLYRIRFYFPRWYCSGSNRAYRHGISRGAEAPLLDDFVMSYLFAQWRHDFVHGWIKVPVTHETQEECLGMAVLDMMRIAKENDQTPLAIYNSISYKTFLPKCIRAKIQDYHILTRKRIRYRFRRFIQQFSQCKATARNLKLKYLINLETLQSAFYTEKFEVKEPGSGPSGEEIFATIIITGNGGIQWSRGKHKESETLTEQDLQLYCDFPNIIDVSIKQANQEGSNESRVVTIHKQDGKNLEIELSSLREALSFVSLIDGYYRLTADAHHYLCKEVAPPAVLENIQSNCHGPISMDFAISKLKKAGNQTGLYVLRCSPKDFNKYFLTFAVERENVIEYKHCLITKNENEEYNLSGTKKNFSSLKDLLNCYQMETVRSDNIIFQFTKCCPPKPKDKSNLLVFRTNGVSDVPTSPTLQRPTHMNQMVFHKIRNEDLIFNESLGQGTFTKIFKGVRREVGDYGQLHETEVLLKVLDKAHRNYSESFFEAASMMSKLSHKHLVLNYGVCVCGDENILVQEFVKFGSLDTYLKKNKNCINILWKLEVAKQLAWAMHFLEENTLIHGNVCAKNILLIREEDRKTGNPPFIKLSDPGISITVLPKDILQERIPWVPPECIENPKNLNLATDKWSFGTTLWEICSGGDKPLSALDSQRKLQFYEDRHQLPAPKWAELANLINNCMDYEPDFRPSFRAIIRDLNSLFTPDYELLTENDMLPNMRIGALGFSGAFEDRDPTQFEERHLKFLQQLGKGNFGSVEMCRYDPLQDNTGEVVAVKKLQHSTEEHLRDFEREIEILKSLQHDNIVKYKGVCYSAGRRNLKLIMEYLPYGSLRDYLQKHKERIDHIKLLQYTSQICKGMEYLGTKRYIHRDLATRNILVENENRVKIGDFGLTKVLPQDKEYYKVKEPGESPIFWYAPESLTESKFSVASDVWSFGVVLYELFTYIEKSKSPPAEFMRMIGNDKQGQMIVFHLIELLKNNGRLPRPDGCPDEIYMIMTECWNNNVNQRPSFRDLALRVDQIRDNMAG

First: RLPSGYGLAFR [DLK1_Y262_YF]
Second: KWLEQYTQAIE [LSP1_Y234_Q229K]
The phosphorylation enrichment of the first is lower: 0.837 for the first, 0.915 for the second.

Compared with HHFAAYFQQGD [GPI_Y351_R347H], EFGRRYGFSCQ [CCDC93_Y209_R213C_YF] is lower in phosphorylation enrichment: 0.989 for the first, 0.911 for the second.

First: YPQARYHWLVL [APTX_Y214_K211Q]
Second: CERFSYFGMKA [SLC15A2_Y60_YF]
The phosphorylation enrichment of the first is lower: 0.98 for the first, 2.66 for the second.

First: WFKKFYDANFD [MAPRE2_Y158_YF]
Second: PLQKIYNFNVL [SLC4A1_Y553_T552I_YF]
The phosphorylation enrichment of the first is lower: 0.85 for the first, 1.19 for the second.

Going from IYLADYRIMEG [ALOX12B_Y318] to PESIMYWKFTT [NTRK3_Y744_R745W], the phosphorylation enrichment rises from 1.03 to 2.76.

Going from QTLEAYIRWNK [SPAST_Y604] to SGGMDYGMVGG [TNRC6B_Y1382], the phosphorylation enrichment falls from 1.09 to 0.517.

Going from RKKEEYKMALF [F8_Y1990_YF] to GPIEVYLCPEE [E2F3_Y349], the phosphorylation enrichment rises from 0.691 to 1.29.

Going from TFYQMYDKGLV [IARS2_Y231] to KAIMTYVFSFF [ACTN4_Y260_S262F_YF], the phosphorylation enrichment falls from 0.797 to 0.698.

Compared with ILGRTYFVNHE [NEDD4_Y627_YF], TDEFEYDELIV [TGM1_Y136_YF] is higher in phosphorylation enrichment: 0.758 for the first, 1.34 for the second.

Going from GYRVYYTPDSR [PTPRF_Y451] to EEQKKYFNAVK [SCN5A_Y1494_M1498V_YF], the phosphorylation enrichment falls from 2.29 to 0.727.

Compared with PSFSEYASVQV [SIRPA_Y496], WCKPPYFSCAV [MMS22L_Y28] is lower in phosphorylation enrichment: 1.02 for the first, 0.845 for the second.

First: ALAAPYVLYPG [CEFIP_Y1332]
Second: GENTVYAQVFN [LY9_Y603_M602V]
The phosphorylation enrichment of the first is higher: 0.845 for the first, 0.718 for the second.

First: GFRPVYSEDEQ [CHST6_Y362_YF]
Second: IHETTYNSIKK [ACTA1_Y281_M285K]
The phosphorylation enrichment of the first is higher: 1.47 for the first, 0.532 for the second.

Compared with GDNNIYVTKII [DLG1_Y349_S347N], HCHEGYVLHGA [SVEP1_Y2921_I2922V] is higher in phosphorylation enrichment: 0.942 for the first, 0.943 for the second.

First: VKANTYEKYWP [GATM_Y100]
Second: PLQKTYNHNVL [SLC4A1_Y553_Y555H]
The phosphorylation enrichment of the first is lower: 0.728 for the first, 0.892 for the second.

Going from WRVISYHVVVW [ATP13A2_Y50_G49S] to VNFGAYINDFK [GLB1_Y488_YF], the phosphorylation enrichment falls from 1.26 to 0.83.

For EVKRLYGSVCD [TC2N_Y154], the phosphorylation enrichment was 1.06.
